# Measured values reported in patent US20220315908A1, “NOVEL GARDNERELLA ENDOLYSINS AND USES THEREOF” (priority 2019, published 2022).
# B1: H12B12: natural Gardnerella prophage endolysin from strain 3549624 (protein)
# chain: MSKKGIDVSVWQGDIDFNAVKASGVEFVIIRAGYGIGHKDKWFEENYRKAKTAGLDVGSYWYSYASSAGEVALEAQSCVNILSGKSFEYPVYFDLEEKSQLNRGRDFCDSLITSFCNKLEACGYYAGFYTSLSVANNLVSSHVRDRYALWIAQWNTHCSYQGSYGLWQYSSSGSVNGIAGRVDMDYAYVDYPSVIKNAGLNGYQNGGSYTAPQTSSIDEVAREVINGDWGNGIERKNRLTSAGYDYTSVQNKVNELLGVKAYRKSVDELAREVIRGTWGNGKTRKQRLTQAGYDYNAVQKRVNELL
# modifications: EL12_strain_3549624_non-prophage
# B2: H4B4: natural Gardnerella prophage endolysin from strain Gv5-1 (protein)
# chain: MSKKGIDVSEWQGDIDFNAVKASGVEFVIIRAGYGIGCKDKWFEQNYRKAKTCGLDVGAYWYSYANSGFEAAEEAQSCVNMLSGKSFEYPVYFDLEEKSQLNRGRAFCDSLITSFCSKLETYGYYAGFYTSLSVVNNLVSAHVRDRYALWIAQWNTHCSYQGSYGLWQYSSSGSVPGVAGRVDMDYAYVDYPSIIKNVGLNGCKNGGSDQATRTSSIDEVAREVINGAWGNGNERKQRLTSAGYDYASVQNKVNKLLGVKAYRKSVDELAREVIRGTWGNGNERKQRLAQAGYDYDTVQKRVNELL
# modifications: EL4_strain_Gv5-1
# B3: H11B11: natural Gardnerella prophage endolysin from strain JCP8017A (protein)
# chain: MSKRGIDVSVWQGDIDFNAVKASGVEFVIIRAGYGIGHKDKWFEQNYRKAKTTGLDVGAYWYSYASSAGEAAEEAQSCVNILSGKSFEYPVYFDLEEKSQLNRGRDFCDSLITSFCNKLETYGYYAGFYTSLSVANNLVSSHVRDRYALWIAQWNTHCDYQGSYGLWQYSSSGSVDGIAGRVDMDYTYVDYPSVIKKAGLNGYKNGGSYTAPQTSSIDEVAREVINGDWGNGNERKNRLTSAGYDYTSVQNKVNELLGVKAYRKSVDELAREVIRGTWGNGSTRKQRLTQAGYDYDAVQKRVNELL
# modifications: EL11_strain_JCP8017A
# notes: natural Gardnerella prophage endolysin from strain JCP8017A
# B4: H5B5: natural Gardnerella prophage endolysin from strain JCP7276 (protein)
# chain: MSKKGIDVSEWQGDIDFNAVKASGVEFVIIRAGYGIGCKDKWFEQNYRKAKTAGLDVGAYWYSYANSSSEAAEEAQSCANMLSGKSFEYPVYFDLEEKSQLNRGRAFCDSLITGFCSKLEACGYYAGFYTSLSTANNLVSAHVRNRYALWIAQWNTHCSYQGSYGLWQYSSNGSVPGVAGRVDMDYAYKDYPSIIKNAGLNGCKNGGSDQAARTSSIDEVAREVINGAWGNGNERKQRLTQAGYDYTSVQNKVNKLLGVKACRKSVDELAREVIRGTWGNGNERKNRLTQAGYDYDTVQKRVNELL
# modifications: EL5_strain_JCP7276
# notes: natural Gardnerella prophage endolysin from strain JCP7276
# B5: H7B7: natural Gardnerella prophage endolysin from strain AMD (protein)
# chain: MSKKGIDVSEWQGDIDFNAVKASGVEFVIIRAGYGIGCKDKWFEQNYRKAKTAGLDVGAYWYSYANSASEAAEEAQSCANMLSGKSFEYPVYFDLEEKSQLNRGRAFCDSLITSFCSKLETYGYYAGFYTSLSTANNLVSSHVRNRYALWIAQWNTHCSYQGSYGLWQYSSSGSVPGVAGRVDMDYAYKDYPSIIKNAGLNGCKNGGSDQAARTSSIDEVAREVINGAWGNGNERKQRLTQAGYDYTSVQNKVNKLLGVKACRKSVDELAREVIRGTWGNGNERKNRLTQAGYDYDTVQKRVNELL
# modifications: EL7_strain_AMD
# notes: natural Gardnerella prophage endolysin from strain AMD
# B6: H3B3: natural Gardnerella prophage endolysin from strain Gv18-4 (protein)
# chain: MSKKGIDVSVWQGDIDFNSVKASGVEFVIIRAGYGIGHKDKWFEENYRKAKTAGLDVGSYWYSYASSAGEASEEAQSCVNILSGKSFEYPIYFDLEEKSQLNRGRDFCDSLITSFCNKLEACGYYAGFYTSLSVANNLVSSHVRDRYALWIAQWNTHCSYQGSYGLWQYSSSGSVNGIAGRVDMDYAYVDYPSVIKNAGLNGYQNGGSYTAPQTSSIDEVAREVINGDWGNGNDRKNRLISAGYDYASVQNKVNELLGVKAYRKSVDELAREVIRGTWGNGSMRKHRLTQAGYDYDAVQKRVNELL
# modifications: EL3_strain_Gv18-4
# B7: H2B2: natural Gardnerella prophage endolysin from strain Gv18-4 (protein)
# chain: MSKRGIDVSEWQGDIDFNAVKASGVEFVIIRAGYGIGCKDKWFEQNYRKAKTCGLDVGAYWYSYANSGFEAAEEAQSCVNMLSGKSFEYPVYFDLEEKSQLNRGRAFCDSLITGFCNKLESCGYYAGFYTSLSTANNLVSAHVRNRYALWIAQWNTHCSYQGSYGLWQYSSSGSVPGVAGRVDMDYAYVDYPSIIKNVGLNGCKNGGSDQAARTSSIDEVAREVINGAWGNGNERKQRLTSAGYDYASVQNKVNELLGVKACRKSVDEIAREVIRGTWGNGSTRKQRLTQAGYDYDTVQKRVNELL
# modifications: EL2_strain_Gv18-4
# B8: H10B10: natural Gardnerella prophage endolysin from strain G30-4 (protein)
# chain: MSKRGIDVSVWQGDIDFNAVKASGVEFVIIRAGYGIGHKDKWFEENYRKAKTVGLDVGAYWYSYASSAGEASEEAQSCVNILSGKSFEYPVYFDLEEKSQLNRGRDFCDSLITSFCNKLEACGYYAGFYTSLSVANNLVSSHVRDRYALWIAQWNTHCSYQGSYGLWQYSSSGSVNGIAGRVDMDYAYVDYPSVIKNAGLNGYKNGGSYTAPQISSIDEVAREVINGDWGNGNERKQRLTSAGYDYASVQNKVNELLGVKAYRKSVDELAREVIRGTWGNGSTRKQRLTQAGYDYNAVQKRVNELL
# modifications: EL10_strain_G30-4
# B9: H1B1: natural Gardnerella prophage endolysin from strain HMP9231 (protein)
# chain: MSKKGIDVSEWQGDIDFNAVKASGVEFVIIRAGYGIGCKDKWFEQNYRKAKTAGLDVGAYWYSYANSGFEAAEEAQSLMNMLSGKSFEYPVYFDLEEKSQLNRGRAFCDSLITSFCNKLEACGYYAGFYTSLSTANNLVSAHVRNRYALWIAQWNTHCNYQGSYGLWQYSSNGSVPGVAGRVDMDYAYVDYPSIIKNAGLNGCKNGGSDQAARTSSIDEVAREVINGAWGNGSTRKQRLTSAGYDYASVQNKVNELLGVKACRKSVDELAREVIRGAWGNGSTRKQRLAQAGYDYDTVQKRVNELL
# modifications: EL1_strain_HMP9231
# notes: natural Gardnerella prophage endolysin from strain HMP9231
# Tested on: Gardnerella cells
# Experiment: Turbidity reduction (OD) assay of Gardnerella suspensions
# Assay type: cell-based
# Conditions: Gv_10 pH 6.0, Gv_17 pH 7.0, Gv_23 pH 7.4; aerobic, room temperature; vs buffer
# Protocol: FIGS. 4A to 4C show three enzymatic activity assays where the enzymatic activity of natural Gardnerella prophage endolysins of the present disclosure is measured by detecting the change in turbidity of a suspension of Gardnerella cells. In FIG. 4A, the enzymatic activity of the endolysins is measured by detecting the change in turbidity of a suspension of the G. leopoldii strain Gv_10 at pH 6.0. In FIG. 4B, the enzymatic activity of the endolysins is measured by detecting the change in turbidity of a suspension of the G. piotii strain Gv_17 at pH 7.0. In FIG. 4C, the enzymatic activity of the endolysins is measured by detecting the change in turbidity of a suspension of the G. swidsinskii strain Gv_23 at pH 7.4. Treatment was conducted in a medium adjusted to the appropriate pH in a photometric cuvette against buffer. Then, the change in turbidity was assessed by measuring the optical density (OD) at 600 nm. As a result, the drop in turbidity was more pronounced for the endolysin treated groups than for the buffer, indicating enzymatic activity.
# To test the activity of the purified endolysins, the turbidity change of Gardnerella suspensions (see Table 2) was measured at 610-620 nm using essentially the method described in Reference Example 2, where 95 ul of bacterial suspension in Hardy Broth at the indicated pH was mixed with 5 ul of endolysin solution in a photometric cuvette under aerobic conditions at room temperature. In turbidity reduction assays, a decrease in light scattering (i.e., turbidity reduction) of a suspension of live cells can be used in a spectrophotometer to assay the activity of peptidoglycan hydrolases. The reduction in optical density over time (minutes) can be used to calculate a rate of hydrolysis. Results are compared to a “no-enzyme added, buffer only” control preparation treated identically for the same period of time. In this manner, a specific activity of the enzyme preparation can be reported as ΔOD/time/ul lysin protein. […] As explained above, due to the low content of peptidoglycan in the cell wall, the fact that a peptidoglycan-degrading enzyme such as the identified endolysins could efficiently lyse the bacterial cell walls was an unexpected and surprising discovery.
# Gardnerella cells were recovered from cryo stock by plating on Chocolate Agar plates (Beckton Dickinson) and incubating for 48 h at 37° C. under anaerobic conditions. For Lactobacilli, BD Schaedler/5% sheep blood agar plates were used instead. Colonies were scraped from the plate, resuspended in Hardy Broth or NYC-III-HS-5.0 at the pH as indicated, and the suspension adjusted to OD (610 or 620 nm as indicated) 0.1. It has to be noted that two Tecan Microplate readers, having respectively a 610 nm or 620 nm filter, have been used interchangeably in the experiments. Although it doesn't make any difference for the experiments, the exact wavelength used is specified in each example. If not stated otherwise, 90 μl cell suspension was mixed with 10 μl endolysin solution, for the different species/endolysin combinations, in 384-well plates. OD(610-620 nm as indicated) was measured at the beginning of the reaction and at the end, either as two measurement points or as a continuous kinetic in a Tecan F200 Microplate reader. The reactions were incubated for 5 hours (or otherwise the time indicated) at 37° C. under anaerobic, micro-aerophilic or aerobic conditions as indicated. Anaerobic conditions intend that oxygen was fully depleted from the container in which the bacteria are incubated (Sigma-Aldrich anaerobic jar or sealable lunch box) with an anaerobic sachet, and the lack of oxygen was confirmed with an anaerobic indicator inside the container. Where micro-aerophilic conditions are indicated, the candle-in-a-jar method was used (tea candle lit in an appropriate sealable container, which reduces oxygen levels until the flame dies out). […]
row,Molecule,enzymatic activity by drop in turbidity (capacity to lyse Gardnerella cell walls)
1,B1,active
2,B2,active
3,B3,active
4,B4,active
5,B5,active
6,B6,active
7,B7,active
8,B8,active
9,B9,active
